From publication PMC3500560 (The Journal of neuroscience : the official journal of the …, 2011)

Key:
SEC-MALS = molecular target: the molecule itself; test: SEC-MALS
cross-linking = molecular target: the molecule itself; test: cross-linking

B1: MBP-LH1 fusion protein (domain or fragment)
chain: not shown
SEC-MALS
  stoichiometry N: 2

B2: His6-tagged SYD-2LH1 (domain or fragment)
chain: not shown
cross-linking
  stoichiometry N: 2
